Legend:
[1] = Percent elution of IFN entrapped onto HAP in PBS containing 20% FCS; assay type: physicochemical; settings: 37° C., 16 hours
Procedure: 45 mg of porous hydroxyapatite (HAP) was accurately weighed. 30 μg of IFN from a 2.4 mg/ml interferon a (IFN) solution was added thereto, and the mixture was allowed to stand for 10 minutes. […] This dispersion was washed by addition of 1.5 ml of water. When IFN in the washed solution was quantitatively determined, IFN was not detected. Specifically, all IFN was confirmed to be entrapped on HAP. In this manner, a microparticle preparation on which IFN as a protein was entrapped could be obtained without using an organic solvent. After the washing, 20 ml of a PBS solution containing FCS in an amount of 20% was added to the resulting powder, and the mixture was shaken at 37° C. for 16 hours. IFN eluted in the supernatant liquid was quantitatively determined to calculate the percent elution.

[2] = IFN α blood level after subcutaneous administration of IFN α-HAp preparation (Example 2); assay type: in vivo, ddy mouse; settings: IFN α with HSA, chondroitin sulfate and Zn(CH3COO)2 in HAp sintered at 180° C., 4 hours and 1 to 10 days, ELISA, FIG. 2
Procedure: 0.854 ml of 225 μg/ml IFN α (interferon α, Sumitomo Pharmaceuticals) and 1.2 ml of 20 mg/ml HSA were mixed to prepare a protein-mixed solution. 0.856 ml of the protein-mixed solution was mixed with 200 mg of HAp sintered at 180° C., and the mixture was stirred to entrap a protein in HAp. 0.05 ml of 20 mg/ml chondroitin sulfate (CS, from Wako), 0.074 ml of H2O, and 0.02 ml of 1 M Zn(CH3COO)2 were sequentially added thereto. The mixture was centrifuged at 15,000 rpm for five minutes. 2 ml of a 20 mM Zn(CH3COO)2/5% mannitol solution was added to the deposit to prepare a sample.
As a control, 0.644 ml of H2O and 0.5 ml of 20% mannitol were added to 0.856 ml of an IFN α-containing protein-mixed solution to prepare an IFN α (free) solution.
0.5 ml of the sample prepared above was subcutaneously administered to an eight-week-old male ddy mouse (weight: 33 to 40 g, SLC, Japan). Four hours and one to ten days after the administration, blood was collected from the orbit of the mouse. The IFN α concentration in this blood was determined using an ELISA kit (Biosource).

[3] = Entrapment of IFN on HAP (IFN in the washed solution); assay type: physicochemical; settings: 30 μg IFN on 45 mg HAP, 20 mM zinc acetate, washed with 1.5 ml water
Procedure: 45 mg of porous hydroxyapatite (HAP) was accurately weighed. 30 μg of IFN from a 2.4 mg/ml interferon a (IFN) solution was added thereto, and the mixture was allowed to stand for 10 minutes. Then, 1 ml of a 20 mM/1 ml zinc acetate solution was added thereto, and the mixture was shaken for 30 minutes. This dispersion was washed by addition of 1.5 ml of water. When IFN in the washed solution was quantitatively determined, IFN was not detected. Specifically, all IFN was confirmed to be entrapped on HAP. In this manner, a microparticle preparation on which IFN as a protein was entrapped could be obtained without using an organic solvent. After the washing, 20 ml of a PBS solution containing FCS in an amount of 20% was added to the resulting powder, and the mixture was shaken at 37° C. for 16 hours. IFN eluted in the supernatant liquid was quantitatively determined to calculate the percent elution.

[4] = Effect of Zn concentration on sustained release of IFN-HAp preparation (IFN α blood level, Example 3); assay type: in vivo, ddy mouse; settings: IFN α/HSA/CS in HAp, freeze-dried, subcutaneous, 4 hours and 1 to 7 days, FIG. 3
Procedure: 0.06 ml of 0.937 mg/ml IFN α, 0.3 ml of 20 mg/ml HSA, 0.03 ml of 20 mg/ml CS, and 1.22 ml of H2O were added to prepare a solution. 200 mg of HAp sintered at 180° C. was added on this solution. A protein was entrapped in HAp by stirring, and then 10 ml of H2O was added. The mixture was lightly stirred and centrifuged at 3,000 rpm for five minutes.
The deposit was freeze-dried and divided in two. 1 ml of a 20 mM Zn(CH3COO)2/5% mannitol solution was added to one division, while 1 ml of a 5 mM Zn(CH3COO)2/5% mannitol solution was added to the other division.
As a control, 0.015 ml of 0.937 mg/ml IFN α, 0.075 ml of 20 mg/ml HSA, 0.66 ml of H2O and 0.25 ml of 20% mannitol were added to prepare an IFN α (free) solution.
0.7 ml of the sample prepared above was subcutaneously administered to a seven-week-old male ddy mouse (weight: 31 to 33 g, SLC, Japan). Four hours and one to seven days after the administration, blood was collected from the orbit of the mouse. The IFN α concentration in this blood was determined using an ELISA kit (Biosource).

[5] = prior-art two-component apatite particles; cited from earlier work
[6] = PC-BDNF blood level after subcutaneous administration of PC-BDNF-HAp preparation; assay type: in vivo, ddy mouse; settings: PC-BDNF in HAp sintered at 180° C. with HSA and 5 mM Zn(CH3COO)2/5% mannitol, 2 hours to 4 days, ELISA, FIG. 1
Procedure: 66 μl of a 4.54 mg/ml PC-BDNF (lecithinized BDNF) solution was added to 20 mg of porous hydroxyapatite microparticles (HAp) sintered at 180° C., and the mixture was stirred using a vortex mixer for one minute. 434 μl of a 0.1% HSA solution was added thereto, and the mixture was stirred again for one minute. The mixture was allowed to stand for three minutes, and then centrifuged at 1,000 rpm for three minutes to remove the supernatant liquid. 500 μl of a 5 mM Zn(CH3COO)2/5% mannitol solution was added to the deposit, and the mixture was stirred to prepare a sample. As a control, a sample in which 66 μl of a 4.54 mg/ml PC-BDNF solution was mixed with 434 μl of 5% mannitol was also prepared. 500 μl of each sample was subcutaneously administered to a six-week-old male ddy mouse. Two hours, seven hours, 17 hours, one day, two days, and four days after the administration, blood was collected from the orbit to determine the PC-BDNF blood level using an ELISA kit (Promega).

[7] = Adsorption of G-CSF on hydroxyapatite preliminarily treated with zinc acetate; assay type: physicochemical; settings: for Amount of adsorbed G-CSF / Amount of free G-CSF: 10 mg hydroxyapatite bound with zinc
Procedure: Then, the following procedure was conducted to attempt adsorption of zinc on hydroxyapatite particles and adsorption of G-CSF on the particles. 10 mg of hydroxyapatite was suspended in 200 μl of zinc acetate (5 mg/ml). The suspension was allowed to stand for 10 minutes at room temperature, and then centrifuged at 10,000 rpm for 10 minutes to discard the supernatant liquid. The precipitate was suspended in 500 μl of purified water. The suspension was allowed to stand for 10 minutes at room temperature, and then centrifuged at 10,000 rpm for 10 minutes to discard the supernatant liquid. After the sediment was suspended and centrifuged again, the supernatant liquid was discarded. This precipitate was suspended in 0.5 ml of a 200 μg/ml or 1,000 μg/ml G-CSF solution. The suspension was allowed to stand for 10 minutes, and then centrifuged at 10,000 rpm for 10 minutes. The amount of G-CSF in the supernatant liquid was determined by an ELISA method. Further, G-CSF entrapped in hydroxyapatite was eluted from the precipitate using 0.1 M EDTA and a 1% HAS solution, and the eluate was centrifuged. Then, the G-CSF concentration in the supernatant liquid was determined by an ELISA method to determine the amount of G-CSF adsorbed on hydroxyapatite.

[8] = Adsorption of G-CSF on hydroxyapatite particles without zinc; assay type: physicochemical; settings: 40 mg hydroxyapatite particles, 100 μl of G-CSF solution (100 μg/ml), no zinc; eluted with pH 4 acetic acid buffer; ELISA
Procedure: 40 mg of hydroxyapatite particles were immersed in 100 μl of a G-CSF solution (100 μg/ml) for 10 minutes. Then, 900 μl of purified water was added, and the mixture was stirred and centrifuged. Then, the supernatant liquid was discarded. Purified water was added to the precipitate again, and the mixture was stirred and centrifuged to remove the excessive G-CSF.
The precipitate was suspended in a pH 4 acetic acid buffer to elute G-CSF. After centrifugation, the amount of G-CSF in the supernatant liquid was determined by ELISA to determine the amount of G-CSF adsorbed. Almost no adsorption was observed (0.1 μg or less).

[9] = In vitro release test of G-CSF from HAp in PBS, embolized versus not embolized; assay type: physicochemical; settings: embolized (HSA, CaCl2, then Na2CO3) versus not embolized, room temperature, ELISA, FIG. 4
Procedure: 100 μl of a preliminarily mixed solution of G-CSF (3 μg/ml), HSA (30 μg/ml), and CaCl2 (280 mg/ml) was added to 50 mg of HAp sintered at 180° C. The mixture was stirred using a vortex mixer for three minutes, allowed to stand for five minutes, and freeze-dried. 100 μl of a 220 mg/ml Na2CO3 solution was added to the resulting particles, and the mixture was stirred using a vortex mixer for three minutes. After further addition of 100 μl of water, the mixture was lightly stirred. A part of the mixture was collected for ELISA determination. The remaining part was centrifuged at 1,000 rpm for three minutes to collect the supernatant liquid. 2 ml of PBS was added to the deposit, and the mixture was lightly shaken at room temperature. After 0 hour and 0.5 hour, respectively, the supernatant liquid was collected. Further, 10 ml of PBS was added to the deposit, and the mixture was shaken at room temperature. After 0 hour and 0.5 hour, respectively, the supernatant liquid was collected. The final deposit and the supernatant liquids obtained on the way were subjected to determination using an ELISA kit (IBL). The final deposit was dissolved in 1% BSA/Tris-HCl (pH 5) and used for the ELISA determination. The results are shown in FIG. 4-A. 200 μl of a 1.5 μg/ml G-CSF solution was added to 50 mg of HAp to fill the pores, and 2 ml of PBS was added further. The same release test was conducted.

Molecule: IFN α
- Eluted IFN (%) ([1]; Zinc acetate 0 mM): 92%
- Eluted IFN (%) ([1]; Zinc acetate 20 mM): 87%
- IFN α concentration in blood, sustained-release effect [2]: excellent sustained-release effect
- IFN in the washed solution [3]: not detected
- IFN α blood level ([4]; zinc 5 mM): sufficiently increased, but was reduced comparatively rapidly
- IFN α blood level ([4]; zinc 20 mM): not sufficiently increased, but IFN α was released slowly for a long time

Molecule: hGH: human growth hormone, on prior-art apatite particles
- Amount of hGH adsorbed on the apatite particles (entrapped amount) [5]: ≤ 1%

B1: PC-BDNF: lecithinized BDNF; tested entrapped in HAp with HSA and zinc acetate (PC-BDNF-HAp preparation) (conjugate, UniProt P23560 19-247, looked up)
Neurotrophic factor BDNF …: APMKEANIRGQGGLAYPGVRTHGTLESVNGPKAGSRGLTSLADTFEHVIEELLDEDQKVRPNEENNKDADLYTSRVMLSSQVPLEPPLLFLLEEYKNYLDAANMSMRVRRHSDPARRGELSVCDSISEWVTAADKKTAVDMSGGTVTVLEKVPVSKGQLKQYFYETKCNPMGYTKEGCRGIDKRHWNSQCRTTQSYVRALTMDSKKRIGWRFIRIDTSCVCTLTIKRGR
modifications: lecithinized; entrapped in hydroxyapatite
- PC-BDNF blood level, sustained-release effect [6]: excellent sustained-release effect

B2: G-CSF: G-CSF protein loaded into or adsorbed on hydroxyapatite microparticles (protein, UniProt P09919 31-207, looked up)
Granulocyte …: TPLGPASSLPQSFLLKCLEQVRKIQGDGAALQEKLVSECATYKLCHPEELVLLGHSLGIPWAPLSSCPSQALQLAGCLSQLHSGLFLYQGLLQALEGISPELGPTLDTLQLDVADFATTIWQQMEELGMAPALQPTQGAMPAFASAFQRRAGGVLVASHLQSFLEVSYRVLRHLAQP
modifications: adsorbed on hydroxyapatite microparticles
- Amount of adsorbed G-CSF ([7]; total amount of G-CSF 100 μg): 86.4 µg
- Amount of free G-CSF ([7]; total amount of G-CSF 100 μg): 0.4 µg
- Amount of adsorbed G-CSF ([7]; total amount of G-CSF 500 μg): 400.0 µg
- Amount of free G-CSF ([7]; total amount of G-CSF 500 μg): 90.0 µg
- Maximum amount of G-CSF adsorbed ([7]; on 10 mg of hydroxyapatite): 400 µg
- Amount of G-CSF adsorbed [8]: ≤ 0.1 µg
- Release of G-CSF from HAp [9]: release was remarkably suppressed

From patent US20060093670A1, “Sustained-release composition process for producing the same and preparation thereof” (priority 2002, published 2006)
